Results taken from US6730293B1, “Compositions and methods for treating inflammatory diseases of the skin” (CellGate, Inc., priority 1999, dated 2004).
Each block holds one compound with its values, some of them ahead of it. Square brackets hold non-standard residues; d marks the D form. Peptide text beside a SMILES is read from it. * marks the point of attachment. X1 = C[C@]12CCC(=O)C=C1CC[C@@H]1[C@@H]2[C@@H](O)C[C@@]2(C)[C@H]1CC[C@]2(O)C(=O)COC(=O)C*; Biotin = O=C1N[C@H]2[C@H](CS[C@H]2CCCCC(=O)*)N1; Ahx = NCCCCCC(=O)O

Tests used:
skin of nude mice = test: Penetration of hydrocortisone-biotinylated D-arginine conjugates into skin of nude mice; assay type: in vivo; settings: back of nude mice, in PBS, 30, 60, 120 minutes
Method: Slides were analyzed by fluorescent microscopy.

[1] = system: full thickness human skin grafted onto the back of a SCID mouse; settings: in vivo
[2] = system: CD3+ T cells in inflamed skin; settings: mouse, in vivo
[3] = pH dependent stability / release of releasable Cyclosporin A conjugate; assay type: physicochemical; settings: acidic pH vs physiological pH, absence of serum
Excerpt: See, e.g., R. E. Handschumacher, et al., Science 226, 544-7 (1984).
Another modification in the design of the releasable conjugate was the use of L-arginine (R), and not D-arginine (r) in the transporter.

[4] = system: abdominal skin of nude mice; test: Penetration of Cu-DTPA-r7 complex into skin of nude mice (blue color); assay type: in vivo; settings: abdominal region of nude mice, 15, 30 and 45 minutes
Method: Metal diethylenetriaminepentaacetic acid (DTPA) complexes were formed by mixing equimolar amounts of metal salts with DTPA in water for 18 hours. At the end of this time, the solutions were centrifuged, frozen and lyophilized. The dried powder was characterized by mass spectrometry and used in solid phase peptide synthesis. The metal-DTPA complexes were attached to polymers of D- or L-arginine that were still attached to solid-phase resin used in peptide synthesis. The metal-DTPA complexes were attached using an aminocaproic acid spacer. The solid phase peptide synthesis techniques were described in Example 1, with the exception that cleavage of the peptide-DTPA -metal complex in trifluoroacetic acid released the metal. The metal is replaced after HPLC purification and lyophilization of the peptide-DTPA complex. Replacement of the metal involved incubation of equimolar amounts of the metal salt with the peptide-aminocaproic acid-DTPA complex and subsequent lyophilization.
Varying concentrations (1 M to 1 mM) of the Cu-DTPA -aca-r7 complex were applied to the abdominal region of nude mice for 15, 30 and 45 minutes. As controls, an equimolar amount of the Cu-DTPA complex was spotted onto the abdominal region.

Compound: C[C@H](NC(=O)[C@H](C)NC(=O)[C@@H](CCCNC(=N)N)NC(=O)[C@@H](CCCNC(=N)N)NC(=O)[C@@H](CCCNC(=N)N)NC(=O)[C@@H](CCCNC(=N)N)NC(=O)[C@@H](CCCNC(=N)N)NC(=O)CCCCCNC(=O)CCCC[C@@H]1SC[C@@H]2NC(=O)N[C@@H]21)C(=O)N[C@@H](CSCC(=O)OCC(=O)[C@@]1(O)CC[C@H]2[C@@H]3CCC4=CC(=O)CC[C@]4(C)[C@H]3[C@@H](O)C[C@@]21C)C(N)=O ({Biotin-Ahx}-[dR][dR][dR][dR][dR]AAC(X1)-NH2)
penetration into skin (fluorescent streptavidin staining) (skin of nude mice): very little uptake

Compound: C[C@H](NC(=O)[C@H](C)NC(=O)[C@@H](CCCNC(=N)N)NC(=O)[C@@H](CCCNC(=N)N)NC(=O)[C@@H](CCCNC(=N)N)NC(=O)[C@@H](CCCNC(=N)N)NC(=O)[C@@H](CCCNC(=N)N)NC(=O)[C@@H](CCCNC(=N)N)NC(=O)[C@@H](CCCNC(=N)N)NC(=O)CCCCCNC(=O)CCCC[C@@H]1SC[C@@H]2NC(=O)N[C@@H]21)C(=O)N[C@@H](CSCC(=O)OCC(=O)[C@@]1(O)CC[C@H]2[C@@H]3CCC4=CC(=O)CC[C@]4(C)[C@H]3[C@@H](O)C[C@@]21C)C(N)=O ({Biotin-Ahx}-[dR][dR][dR][dR][dR][dR][dR]AAC(X1)-NH2)
penetration into skin (fluorescent streptavidin staining) (skin of nude mice): effectively entered into and across the epidermis and into the dermis

Compound: C/C=C/C[C@@H](C)[C@@H](OC(=O)CSC[C@H](NC(=O)[C@@H](CCCNC(=N)N)NC(=O)[C@@H](CCCNC(=N)N)NC(=O)[C@@H](CCCNC(=N)N)NC(=O)[C@@H](CCCNC(=N)N)NC(=O)[C@@H](CCCNC(=N)N)NC(=O)[C@@H](CCCNC(=N)N)NC(=O)[C@@H](CCCNC(=N)N)NC(=O)CCCCCNC(=O)CCCC[C@@H]1SC[C@@H]2NC(=O)N[C@@H]21)C(N)=O)[C@H]1C(=O)N[C@@H](CC)C(=O)N(C)CC(=O)N(C)[C@@H](CC(C)C)C(=O)N[C@@H](C(C)C)C(=O)N(C)[C@@H](CC(C)C)C(=O)N[C@@H](C)C(=O)N[C@H](C)C(=O)N(C)[C@@H](CC(C)C)C(=O)N(C)[C@@H](CC(C)C)C(=O)N(C)[C@@H](C(C)C)C(=O)N1C [biotin r7 CsA, B-aca-r7-Cys-O-acyl-Cyclosporin A]
penetration into human skin [1]: penetrated human epidermis and dermis
presence in CD3+ T cells of inflamed skin [2]: found in all CD3[+] T cells

Compound: C/C=C/C[C@@H](C)[C@@H](OC(=O)CN(Cc1ccccc1)C(=O)CNCC(=O)N[C@@H](CCCNC(=N)N)C(=O)N[C@@H](CCCNC(=N)N)C(=O)N[C@@H](CCCNC(=N)N)C(=O)N[C@@H](CCCNC(=N)N)C(=O)N[C@@H](CCCNC(=N)N)C(=O)N[C@@H](CCCNC(=N)N)C(=O)N[C@@H](CCCNC(=N)N)C(N)=O)[C@H]1C(=O)N[C@@H](CC)C(=O)N(C)CC(=O)N(C)[C@@H](CC(C)C)C(=O)N[C@@H](C(C)C)C(=O)N(C)[C@@H](CC(C)C)C(=O)N[C@@H](C)C(=O)N[C@H](C)C(=O)N(C)[C@@H](CC(C)C)C(=O)N(C)[C@@H](CC(C)C)C(=O)N(C)[C@@H](C(C)C)C(=O)N1C [releasable R7 CsA conjugate]
pH stability [3]: stable at acidic pH, but labile at physiological pH

blue color on skin after wiping off [4]: not where the Cu-DTPA alone was spotted
Compound: Copper-diethylenetriaminepentaacetic Acid Complex [Cu-DTPA]
